Measurements: patent US20230295310A1 (ABCELLERA BIOLOGICS, published 2023)
Substitutions are numbered along the chain they refer to.

B1: mAb 94 (antibody, V domains shown)
VH: QVHLVESGGGVVQPGRSLRLSCSASGFTFSGYGMHWVRQAPGKGLEWVALIYFDGRNKYYADSVKGRFTISRDNSKNTLYLQMNSLRAEDTAVYYCARGGGYNWFDPWGQGTLVTVSS
VL: DIQMTQSPSSLSASVGDRVTITCRASQSISNYLNWYQQKPGKAPKLLIYLASSLQSGVPSRFSGSGSGTDFTLTINSLQPEDFASYYCQLSYSSPFTFGPGTKVDVN
B2: mAb 95 (antibody, V domains shown)
VH: B1 VH with V2A
VL: B1 VL with S30N, N34S, S53N, N76S, S85T, S93R, N107K
B3: mAb 96 (antibody, V domains shown)
VH: B1 VH with V2A, A49S
VL: B1 VL with S30N, N34S, S53N, S65N, N76S, S85T, S93R, N107K
B4: mAb 97 (antibody, V domains shown)
VH: B1 VH with V2G, H3Q, S23A, S30R, L50I, F53Y, R56K, S85N, A88V
VL: B1 VL with V15I, L50S, N76S, S77N, S85I, L90R, S94P, V104L, V106I, N107R
B5: mAb 44 (antibody, V domains shown)
VH: QAQLVQSGSELKKPGASVKVSCKASGYTFTRHAMNWVRQAPGQGLEWMGWINTNTGNPTYAQGFTGRFVFSLDTSVSTAYLKISSLKAEDTAVYYCVREGDYDFWSGFFNFDYWGQGTLVTVSS
VL: DIQMTQSPSSLSASVGDRVTITCRASQGIRNDLGWFQQKPGKAPTRLIYAASSLQSGVPSRFSGSGSGAEFTLTISSLQPEDFATYYCLQHNSYPRTFGQGTKVEIK
B6: mAb 98 (antibody, V domains shown)
VH: B1 VH with G10D
VL: B1 VL with S30N, N76S, F83L, S85T, N107K
B7: mAb 99 (antibody, V domains shown)
VH: B1 VH with V2G, H3Q, S23A, S30R, Y32F, L50I, F53Y, R56K, R98K
VL: B1 VL with N31T, L50S, N76S, S77N, S85I, L90R, S94P, V104L, V106I, N107R
B8: mAb 100 (antibody, V domains shown)
VH: B1 VH with H3Q, S23V, S30R, L50I, F53Y, R56K, A88V, V93L
VL: DIQMTQSPSSLSASVGDRVTITCRASQSISTYLNWYQQKPGKAPKLLIYTASSLQSGVPSRFSGSGSGTVFTLTISSLQPEDFAIYYCQRSYSPPFTFGPGTRLDIK
B9: mAb 101 (antibody, V domains shown)
VH: B1 VH with V2G, H3Q, S23A, S30R, Y32F, L50I, F53Y, R56K, T78M, R98K
VL: B8 VL with T50S, V70D, S77N, R103K, K107R
B10: mAb 102 (antibody, V domains shown)
VH: QVQLVESGGGVVQPGRSLRLSCAASGFSFRSYGMHWVRQAPGKGLEWVSVISYDGGNKYYADSVKGRFTISRDNSKNTLFLQMKSLRAEDTALYYCAKGGGTYWRGLFEYWGQGTLVTVSS
VL: DIQLTQSPSFLSASVGDRVTITCRASQGISSYLAWYQKKPGKAPKLLIYAASTLHSGVPSRFSGGGSGTAFTLTISSLQPEDFATYYCQQLNNYPFTFGPGTKVDIK

These binders were tested against human CD3 (human, UniProt P07766 23-207; P04234 22-171; P09693 23-182) (assay: cell-based or functional assay).
Sequence of human CD3 (P07766 23-207, chain 1 of 3): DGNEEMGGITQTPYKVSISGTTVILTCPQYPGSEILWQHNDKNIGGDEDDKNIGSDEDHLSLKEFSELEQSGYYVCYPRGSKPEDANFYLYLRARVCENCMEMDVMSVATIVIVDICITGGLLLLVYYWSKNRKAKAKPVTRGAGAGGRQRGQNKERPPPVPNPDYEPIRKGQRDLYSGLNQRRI
Sequence of human CD3 (P04234 22-171, chain 2 of 3): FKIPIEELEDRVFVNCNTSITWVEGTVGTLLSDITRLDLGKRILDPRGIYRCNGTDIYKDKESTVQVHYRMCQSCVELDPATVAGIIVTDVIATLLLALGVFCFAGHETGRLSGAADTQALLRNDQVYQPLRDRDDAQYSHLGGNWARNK
Sequence of human CD3 (P09693 23-182, chain 3 of 3): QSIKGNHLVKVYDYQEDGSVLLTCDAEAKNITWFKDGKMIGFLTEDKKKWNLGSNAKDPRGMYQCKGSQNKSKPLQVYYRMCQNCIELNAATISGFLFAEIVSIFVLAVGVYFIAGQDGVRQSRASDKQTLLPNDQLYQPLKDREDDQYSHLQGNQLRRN
For B1, the “CD4 EC50 (nM); CD69/CD25 on human T cells, plate-coated antibody” value (shortened to “CD4 EC50 (nM); CD69/CD25”) was 11.7 nM and the “CD8 EC50 (nM); CD69/CD25 on human T cells, plate-coated antibody” value (shortened to “CD8 EC50 (nM); CD69/CD25”) was 12.4 nM. In the case of B2, the “CD4 EC50 (nM); CD69/CD25” value is reported as 14.4 nM and the “CD8 EC50 (nM); CD69/CD25” value is reported as 15.5 nM. For B3, the “CD4 EC50 (nM); CD69/CD25” value was 17.2 nM and the “CD8 EC50 (nM); CD69/CD25” value was 19.5 nM. B4 was tested, and the “CD4 EC50 (nM); CD69/CD25” value was 12.6 nM and the “CD8 EC50 (nM); CD69/CD25” value was 13.9 nM. B5 was tested, and the “CD4 EC50 (nM); CD69/CD25” value was 20.4 nM and the “CD8 EC50 (nM); CD69/CD25” value was 20.9 nM. In the case of B6, the “CD4 EC50 (nM); CD69/CD25” value is reported as 11.3 nM and the “CD8 EC50 (nM); CD69/CD25” value is reported as 12 nM. B7 was tested, and the “CD4 EC50 (nM); CD69/CD25” value was 11.7 nM and the “CD8 EC50 (nM); CD69/CD25” value was 12.1 nM. For B8, the “CD4 EC50 (nM); CD69/CD25” value was 13.1 nM and the “CD8 EC50 (nM); CD69/CD25” value was 13.3 nM. In the case of B9, the “CD4 EC50 (nM); CD69/CD25” value is reported as 12.9 nM and the “CD8 EC50 (nM); CD69/CD25” value is reported as 14.5 nM. B10 was tested, and the “CD4 EC50 (nM); CD69/CD25” value was 15.6 nM and the “CD8 EC50 (nM); CD69/CD25” value was 16.9 nM.
